Data as given in PMC7425898, “Human Golgi phosphoprotein 3 is an effector of RAB1A and RAB1B” (PLoS ONE, 2020).

B1: GST-RAB1A (wild type) (natural protein)
chain: not shown
notes: RAB1A, human, full length, cloned into pGST-Parallel-1; also called GST-tagged RAB1A; GST-RAB1A/B; source: E. coli B834(DE3), purified on glutathione-Sepharose 4B
B2: GST-RAB1B (wild type) (natural protein)
chain: not shown
notes: RAB1B, human, full length, cloned into pGST-Parallel-1; also called GST-tagged RAB1B; GST-RAB1A/B; source: E. coli B834(DE3), purified on glutathione-Sepharose 4B
B3: Endogenous GOLPH3 (natural protein, human (endogenous in H4), UniProt Q9H4A6 1-298, looked up)
chain: MTSLTQRSSGLVQRRTEASRNAADKERAAGGGAGSSEDDAQSRRDEQDDDDKGDSKETRLTLMEEVLLLGLKDREGYTSFWNDCISSGLRGCMLIELALRGRLQLEACGMRRKSLLTRKVICKSDAPTGDVLLDEALKHVKETQPPETVQNWIELLSGETWNPLKLHYQLRNVRERLAKNLVEKGVLTTEKQNFLLFDMTTHPLTNNNIKQRLIKKVQEAVLDKWVNDPHRMDRRLLALIYLAHASDVLENAFAPLLDEQYDLATKRVRQLLDLDPEVECLKANTNEVLWAVVAAFTK
notes: Golgi phosphoprotein 3 (GOLPH3), endogenous in human H4 neuroglioma cells; source: endogenous, H4 human neuroglioma cells, soluble protein extract
B4: Purified, recombinant RAB1B (natural protein)
chain: not shown
notes: RAB1B, human, full length, from pGST-Parallel-1, GST removed by TEV protease; source: E. coli B834(DE3), purified (glutathione-Sepharose 4B, TEV cleavage, Ni-NTA, Superdex 200)
B5: Purified, recombinant RAB1A (natural protein)
chain: not shown
notes: RAB1A, human, full length, from pGST-Parallel-1, GST removed by TEV protease; source: E. coli B834(DE3), purified (glutathione-Sepharose 4B, TEV cleavage, Ni-NTA, Superdex 200)

Key:
[1] = target: T1, Recombinant, untagged GOLPH3 (human, UniProt Q9H4A6 1-298); assay: pull-down; GST-RAB1A/B (50 μM) or GST on glutathione-Sepharose 4B, increasing concentrations of recombinant GOLPH3; 20 mM HEPES, 100 mM NaCl, 5 mM MgCl2, 1 mM DTT, 1% CHAPS, pH 7.2; 3 h, 4°C; Coomassie, densitometry, non-linear fit assuming 1:1; apparent KD; conditions: both partners purified
T1 construct: Golgi phosphoprotein 3 (GOLPH3), human, full-length cDNA NM_022130, cloned into pGST-Parallel-1; removal of GST by TEV is surmised from the vector and from the method told for RAB1; also called purified recombinant GOLPH3; not shown: GST, N-terminal, cleaved

GFP-RAB1A-Q70L = target: T2, GFP-RAB1A-Q70L (human, UniProt P62820 1-205, Q70L); assay: co-IP; GFP-Trap agarose beads with extracts (0.2 mg) of H4 cells expressing GFP or GFP-RAB1A/B variants, supplemented with extract (0.3 mg) of non-transfected cells; 25 mM Tris-HCl, 50 mM NaCl, 0.1% NP-40, pH 7.5; 1.5-4 h, 4°C; immunoblot for GOLPH3, densitometry; conditions: partners not purified
T2 construct: RAB1A, human, pEGFP construct, GTP-locked variant; also called GFP-tagged GTP-locked active state variant of RAB1A; source: H4 cells, transfected (pEGFP construct), in soluble protein extract
T2 sequence (P62820 whole entry Q70L): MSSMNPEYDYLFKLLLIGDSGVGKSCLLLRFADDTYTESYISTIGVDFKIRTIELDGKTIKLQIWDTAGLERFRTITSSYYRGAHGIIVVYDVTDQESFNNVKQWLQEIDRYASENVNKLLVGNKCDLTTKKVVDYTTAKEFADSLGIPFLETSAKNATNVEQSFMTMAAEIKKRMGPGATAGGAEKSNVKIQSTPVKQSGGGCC

GFP-RAB1B-Q67L = target: T3, GFP-RAB1B-Q67L (human, UniProt Q9H0U4 1-201, Q67L); assay: as above; conditions: partners not purified
T3 construct: RAB1B, human, pEGFP construct, GTP-locked variant; also called GFP-tagged GTP-locked active state variant of RAB1B; source: H4 cells, transfected (pEGFP construct), in soluble protein extract
T3 sequence (Q9H0U4 whole entry Q67L): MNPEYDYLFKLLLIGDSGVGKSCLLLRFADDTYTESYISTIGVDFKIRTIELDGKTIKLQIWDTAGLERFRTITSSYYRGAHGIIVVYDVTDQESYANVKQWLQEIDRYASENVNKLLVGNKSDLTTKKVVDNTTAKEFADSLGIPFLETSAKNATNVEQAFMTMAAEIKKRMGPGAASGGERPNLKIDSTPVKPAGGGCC

GST-RAB1A-Q70L = target: T4, GST-RAB1A-Q70L (human, UniProt P62820 1-205, Q70L); assay: pull-down; GST or GST-tagged RAB1A/B variants on glutathione-Sepharose 4B, soluble protein extract of H4 cells (0.5 mg) with protease and phosphatase inhibitors; binding buffer-1; 3 h, 4°C; immunoblot for GOLPH3, densitometry; conditions: one partner purified
T4 construct: RAB1A, human, full length, in pGST-Parallel-1, GTP-locked variant; also called GST-tagged, GTP-locked active state variant of RAB1A; source: E. coli B834(DE3), purified on glutathione-Sepharose 4B
T4 sequence (P62820 whole entry Q70L): as the sequence (P62820 whole entry Q70L) above

GST-RAB1B-Q67L = target: T5, GST-RAB1B-Q67L (human, UniProt Q9H0U4 1-201, Q67L); assay: as above; conditions: one partner purified
T5 construct: RAB1B, human, full length, in pGST-Parallel-1, GTP-locked variant; also called GST-tagged, GTP-locked active state variant of RAB1B; source: E. coli B834(DE3), purified on glutathione-Sepharose 4B
T5 sequence (Q9H0U4 whole entry Q67L): as the sequence (Q9H0U4 whole entry Q67L) above

[2] = target: T1, Recombinant, untagged GOLPH3; assay: ITC; GOLPH3 (100 μM) in the chamber, RAB1A or RAB1B (1 mM) injected; 25°C; 50 mM Tris-HCl, 150 mM NaCl, 1 mM DTT, pH 7.4; one-site model; no nucleotide exchange; conditions: both partners purified

Kd [1] [µM] | Kd [2] [µM] | stoichiometry N [2] | also measured | Binder
54.7 ± 4.2 | – | – | – | B1
64.2 ± 3.7 | – | – | – | B2
– | – | – | fold of GOLPH3 pulled down against the wild type variant (GFP-RAB1A-Q70L): ~1.2 times; fold of GOLPH3 pulled down against the wild type variant (GFP-RAB1B-Q67L): ~1.1 times; fold of GOLPH3 pulled down against the wild type variant (GST-RAB1A-Q70L): ~1.2 times; fold of GOLPH3 pulled down against the wild type variant (GST-RAB1B-Q67L): ~1.1 times | B3
– | 78.4 | 1 | – | B4
– | 61.9 | 1 | – | B5
